For the series, the target named is CD123 peptide epitope (24 aa, extracellular domain, disulfide between the two Cys) (UniProt P26951). In words: flow cytometry, peptide-coated magnetic beads. Particulars: PBS (binding buffer), 37 °C, 30 min; BSA-bead signal subtracted for Kd; pH and salt not given.

Data on two sequences can be found in publication PMC8241133.

Broadly, the Kd is the free concentration of one partner at which half of the binding sites on the other are occupied at equilibrium, for simple one-to-one binding.

Sequence of UniProt P26951 (P26951 whole entry, the tested form may be a part): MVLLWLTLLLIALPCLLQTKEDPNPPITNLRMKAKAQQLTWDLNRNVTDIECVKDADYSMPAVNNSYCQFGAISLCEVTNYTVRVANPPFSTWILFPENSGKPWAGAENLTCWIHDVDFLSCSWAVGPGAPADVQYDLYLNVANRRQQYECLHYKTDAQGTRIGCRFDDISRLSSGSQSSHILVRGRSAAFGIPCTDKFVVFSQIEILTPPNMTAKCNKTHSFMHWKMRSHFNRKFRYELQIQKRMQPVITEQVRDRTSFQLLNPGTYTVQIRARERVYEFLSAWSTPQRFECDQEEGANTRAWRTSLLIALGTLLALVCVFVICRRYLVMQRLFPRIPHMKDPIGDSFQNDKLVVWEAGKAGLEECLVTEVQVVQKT

As for “TGCGTGTGTACTGTGTCTGGTCCCGTAGCTACTAGCGAACTCCCTGCCTCTTAGGGATTTGGGCGG [CY30]”, the Kd is 15.4 nM.

Take “TGCGTGTGTAGTGTGTCTGGGCTACATCGATGAGCTGCCTAGGGTCCCTCTTAGGGATTTGGGCGG [ZW25]”: the dissociation constant Kd was 29.4 nM.
